Values of other authors as cited in article PMC5075297.

Assays:
[1] = target: cellular fibronectin (Homo sapiens) (UniProt P02751)
[2] = target: tropoelastin (Homo sapiens) (UniProt P15502)
[3] = target: type I collagen (Homo sapiens) (UniProt P02452)
Chain of UniProt P02452 (P02452 162-1218, chain 1 of 2): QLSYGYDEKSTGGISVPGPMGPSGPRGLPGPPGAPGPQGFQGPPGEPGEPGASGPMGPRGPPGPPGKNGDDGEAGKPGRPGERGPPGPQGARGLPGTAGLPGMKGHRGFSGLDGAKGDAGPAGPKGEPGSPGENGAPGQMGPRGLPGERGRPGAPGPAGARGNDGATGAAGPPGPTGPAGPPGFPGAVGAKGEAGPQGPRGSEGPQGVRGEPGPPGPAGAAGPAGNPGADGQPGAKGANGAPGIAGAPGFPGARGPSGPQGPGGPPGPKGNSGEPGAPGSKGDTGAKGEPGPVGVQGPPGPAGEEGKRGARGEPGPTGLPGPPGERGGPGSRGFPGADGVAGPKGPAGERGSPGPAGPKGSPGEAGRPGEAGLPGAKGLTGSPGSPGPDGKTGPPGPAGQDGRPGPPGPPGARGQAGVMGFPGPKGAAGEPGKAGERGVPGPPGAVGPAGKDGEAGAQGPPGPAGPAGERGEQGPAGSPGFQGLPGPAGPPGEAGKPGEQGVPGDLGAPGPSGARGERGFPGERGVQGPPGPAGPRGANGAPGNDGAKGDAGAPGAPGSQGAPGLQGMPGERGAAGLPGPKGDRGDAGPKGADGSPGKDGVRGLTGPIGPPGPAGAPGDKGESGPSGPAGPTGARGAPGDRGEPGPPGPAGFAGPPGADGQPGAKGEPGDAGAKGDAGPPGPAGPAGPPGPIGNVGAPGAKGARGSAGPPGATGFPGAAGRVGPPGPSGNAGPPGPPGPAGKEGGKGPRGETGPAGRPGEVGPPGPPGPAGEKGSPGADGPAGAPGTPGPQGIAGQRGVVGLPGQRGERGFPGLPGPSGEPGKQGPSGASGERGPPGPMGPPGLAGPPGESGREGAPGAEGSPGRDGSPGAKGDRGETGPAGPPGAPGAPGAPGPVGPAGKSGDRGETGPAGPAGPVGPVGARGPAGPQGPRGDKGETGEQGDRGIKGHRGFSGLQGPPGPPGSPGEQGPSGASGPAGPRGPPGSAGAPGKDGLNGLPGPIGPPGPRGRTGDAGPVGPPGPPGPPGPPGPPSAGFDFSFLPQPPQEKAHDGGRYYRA
Chain of UniProt P02452 (P08123 80-1119, chain 2 of 2, further chain): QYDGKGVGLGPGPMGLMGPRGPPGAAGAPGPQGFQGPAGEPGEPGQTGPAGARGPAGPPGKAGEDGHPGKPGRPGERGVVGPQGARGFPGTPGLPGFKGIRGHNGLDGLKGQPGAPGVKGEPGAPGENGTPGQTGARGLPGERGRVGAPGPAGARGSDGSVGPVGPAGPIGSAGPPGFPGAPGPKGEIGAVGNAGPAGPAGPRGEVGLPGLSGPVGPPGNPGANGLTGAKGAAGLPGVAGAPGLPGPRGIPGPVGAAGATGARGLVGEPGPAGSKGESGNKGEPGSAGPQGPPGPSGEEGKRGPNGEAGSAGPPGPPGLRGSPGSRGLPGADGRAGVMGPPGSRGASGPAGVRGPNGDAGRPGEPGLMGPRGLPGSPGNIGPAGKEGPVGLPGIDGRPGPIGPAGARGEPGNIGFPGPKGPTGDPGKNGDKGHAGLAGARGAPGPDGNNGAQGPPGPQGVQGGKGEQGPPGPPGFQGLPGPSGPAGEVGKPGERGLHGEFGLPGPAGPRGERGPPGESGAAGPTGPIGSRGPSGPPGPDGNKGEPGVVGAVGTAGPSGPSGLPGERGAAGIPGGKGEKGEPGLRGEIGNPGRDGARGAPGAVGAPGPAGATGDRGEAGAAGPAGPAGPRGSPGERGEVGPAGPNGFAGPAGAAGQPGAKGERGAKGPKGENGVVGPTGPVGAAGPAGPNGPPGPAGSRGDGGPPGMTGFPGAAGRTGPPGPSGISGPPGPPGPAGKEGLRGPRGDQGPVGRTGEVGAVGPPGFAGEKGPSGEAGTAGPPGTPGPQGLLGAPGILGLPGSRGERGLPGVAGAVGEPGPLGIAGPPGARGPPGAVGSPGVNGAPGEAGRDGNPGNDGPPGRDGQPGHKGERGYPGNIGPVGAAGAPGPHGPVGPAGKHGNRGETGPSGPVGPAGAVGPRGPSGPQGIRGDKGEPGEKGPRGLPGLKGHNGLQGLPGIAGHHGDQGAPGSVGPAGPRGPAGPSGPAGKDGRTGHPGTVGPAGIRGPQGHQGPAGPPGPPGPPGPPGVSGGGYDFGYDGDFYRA

Chain of UniProt P15502 (P15502 27-786): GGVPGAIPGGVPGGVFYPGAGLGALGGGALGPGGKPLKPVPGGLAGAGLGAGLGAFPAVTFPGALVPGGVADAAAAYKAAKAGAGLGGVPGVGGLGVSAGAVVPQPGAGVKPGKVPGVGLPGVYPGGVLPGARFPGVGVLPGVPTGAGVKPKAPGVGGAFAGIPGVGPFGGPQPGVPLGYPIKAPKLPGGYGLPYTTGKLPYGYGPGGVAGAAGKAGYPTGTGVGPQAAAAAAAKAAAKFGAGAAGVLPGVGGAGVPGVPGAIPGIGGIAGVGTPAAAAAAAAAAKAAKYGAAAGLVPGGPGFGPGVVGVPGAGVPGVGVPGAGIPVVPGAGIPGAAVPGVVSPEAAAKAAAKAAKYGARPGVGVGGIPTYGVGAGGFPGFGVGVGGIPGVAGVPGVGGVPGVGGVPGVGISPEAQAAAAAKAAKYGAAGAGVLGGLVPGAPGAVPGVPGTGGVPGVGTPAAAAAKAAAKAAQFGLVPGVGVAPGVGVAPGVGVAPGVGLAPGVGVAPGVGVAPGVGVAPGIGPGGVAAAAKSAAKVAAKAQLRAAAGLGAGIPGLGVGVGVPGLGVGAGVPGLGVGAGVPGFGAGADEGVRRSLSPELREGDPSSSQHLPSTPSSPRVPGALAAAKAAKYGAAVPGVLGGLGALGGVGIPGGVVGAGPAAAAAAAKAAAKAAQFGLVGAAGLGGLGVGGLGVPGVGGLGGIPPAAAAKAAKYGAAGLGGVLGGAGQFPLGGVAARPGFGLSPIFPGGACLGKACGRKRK

Kd [1]: 2.5 nM
Kd [2]: 1.9 nM
Kd [3]: 5.2 nM
Substance: LOX (from UniProt P28300)
